{"source": "paper PMC5362245", "about": "“Depletion of Arabidopsis SC35 and SC35-like serine/arginine-rich proteins affects the transcription and splicing of a subset of genes”", "binders": {"B1": {"name": "AT1G53250 mutated RNA probe (AGAAGA to UCUUCU) (ssRNA)", "RNA": "AGAUUAAUCUUCUGGAAAGGAGAAGG"}, "B2": {"name": "AT1G53250 RNA, unlabeled competitor (ssRNA)", "RNA": "AGAUUAAAGAAGAGGAAAGGAGAAGG"}, "B3": {"name": "AT1G53250 AGAAGA RNA probe (ssRNA)", "RNA": "AGAUUAAAGAAGAGGAAAGGAGAAGG"}}, "key": {"SCL30 [1]": {"molecular_target": "T1, SCL30 (UniProt Q8L3X8 1-262)", "T1 sequence": "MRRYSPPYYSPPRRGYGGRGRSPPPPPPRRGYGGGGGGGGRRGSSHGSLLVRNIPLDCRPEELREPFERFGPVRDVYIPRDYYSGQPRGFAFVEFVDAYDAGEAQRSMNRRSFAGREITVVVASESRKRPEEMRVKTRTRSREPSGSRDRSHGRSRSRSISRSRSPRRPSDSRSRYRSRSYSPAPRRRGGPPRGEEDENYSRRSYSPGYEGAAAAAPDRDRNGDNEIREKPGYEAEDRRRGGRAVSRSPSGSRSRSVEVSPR", "assay": "competition; mutated probe failed to compete with N1; 20 ul, 2 ug tRNA, 10 nM biotin-RNA, LightShift Chemiluminescent RNA EMSA kit buffer (salt and pH not stated), 30 min room temperature; 6% native PAGE in 0.5x TBE", "conditions": "protein: recombinant; tags: His"}, "SCL30 [2]": {"molecular_target": "T1, SCL30", "assay": "competition; 0.625-5 uM unlabeled RNA vs 10 nM N1, 0.4 ug SCL30; labeled binding abolished at 5 uM; 20 ul, 2 ug tRNA, 10 nM biotin-RNA, LightShift Chemiluminescent RNA EMSA kit buffer (salt and pH not stated), 30 min room temperature; 6% native PAGE in 0.5x TBE", "conditions": "protein: recombinant; tags: His; label: none"}, "SCL30 [3]": {"molecular_target": "T1, SCL30", "assay": "EMSA; 2 ug tRNA, 10 nM labeled RNA; 20 ul, 2 ug tRNA, 10 nM biotin-RNA, LightShift Chemiluminescent RNA EMSA kit buffer (salt and pH not stated), 30 min room temperature; 6% native PAGE in 0.5x TBE", "conditions": "protein: recombinant; tags: His; label: 5' biotin"}}}
{"binder": "B1", "values": [{"measurement": "binding result", "setting": "SCL30 [1]", "result": "no binding"}]}
{"binder": "B2", "values": [{"measurement": "binding result", "setting": "SCL30 [2]", "result": "binds"}]}
{"binder": "B3", "values": [{"measurement": "binding result", "setting": "SCL30 [3]", "result": "binds"}]}
